Measured values from the supplement of paper PMC11246515.
± gives the standard deviation of the averaged measurements.

Experiment: total protein half-life in vivo (active degradation + dilution); higher = more stable protein
[1] = E. coli NCM3722 delta-clpP delta-lon delta-hslV, growth: N-lim chemostat, doubling time 6 h
[2] = E. coli NCM3722 delta-clpP, growth: N-lim chemostat, doubling time 6 h
[3] = E. coli NCM3722 delta-hslV, growth: N-lim chemostat, doubling time 6 h
[4] = E. coli NCM3722 delta-lon, growth: N-lim chemostat, doubling time 6 h
[5] = E. coli NCM3722 delta-smpB, growth: N-lim chemostat, doubling time 6 h
[6] = wild type E. coli NCM3722, growth: C-lim chemostat, doubling time 3 h
[7] = wild type E. coli NCM3722, growth: C-lim chemostat, doubling time 6 h
[8] = wild type E. coli NCM3722, growth: C-lim chemostat, doubling time 12 h
[9] = wild type E. coli NCM3722, growth: N-lim chemostat, doubling time 6 h
[10] = wild type E. coli NCM3722, growth: P-lim chemostat, doubling time 6 h
[11] = wild type E. coli NCM3722, growth: P-lim chemostat, doubling time 12 h
[12] = wild type E. coli NCM3722, growth: N-lim chemostat, doubling time 12 h

For “MKRMIALDGAQGEGGGQILRSALSLSMITGQPFTITSIRAGRAKPGLLRQHLTAVKAATEICGATVEGAELGSQRLLFRPGTVRGGDYRFAIGSAGSCTLVLQTVLPALWFADGPSRVEVSGGTDNPSAPPADFIRRVLEPLLAKIGIHQQTTLLRHGFYPAGGGVVATEVSPVASFNTLQLGERGNIVQMRGEVLLAGVPRHVAEREIATLAGSFSLHEQNIHNLPRDQGPGNTVSLEVESENITERFFVVGEKRVSAEVVAAQLVKEVKRYLASTAAVGEYLADQLVLPMALAGAGEFTVAHPSCHLLTNIAVVERFLPVRFSLIETDGVTRVSIE”, the “total protein half-life in vivo” value [1] was 5.12 ± 0.25 h, the “total protein half-life in vivo” value [2] was 4.65 h and the “total protein half-life in vivo” value [3] was 5.05 h. For the same sequence, the “total protein half-life in vivo” value [4] was 4.457 ± 0.014 h, the “total protein half-life in vivo” value [5] was 4.17 ± 0.09 h and the “total protein half-life in vivo” value [6] was 2.59 h. For the same sequence, the “total protein half-life in vivo” value [7] was 5.6 ± 0.12 h, the “total protein half-life in vivo” value [8] was 11.3 ± 1.7 h and the “total protein half-life in vivo” value [9] was 4.52 ± 0.4 h. The “total protein half-life in vivo” value [10] was 5.28 ± 0.24 h and the “total protein half-life in vivo” value [11] was 10.9 h.

In the case of “MIENRPWLTIFSHTMLILGIAVILFPLYVAFVAATLDKQAVYAAPMTLIPGTHLLENIHNIWVNGVGTNSAPFWRMLLNSFVMAFSITLGKITVSMLSAFAIVWFRFPLRNLFFWMIFITLMLPVEVRIFPTVEVIANLQMLDSYAGLTLPLMASATATFLFRQFFMTLPDELVEAARIDGASPMRFFCDIVFPLSKTNLAALFVITFIYGWNQYLWPLLIITDVDLGTTVAGIKGMIATGEGTTEWNSVMVAMLLTLIPPVVIVLVMQRAFVRGLVDSEK”, the “total protein half-life in vivo” value [8] is reported as 14.5 h, the “total protein half-life in vivo” value [10] is reported as 6.34 h and the “total protein half-life in vivo” value [11] is reported as 12.6 ± 2.1 h.

With “MDLQHWQAQFENWLKNHHQHQDAAHDVCHFRRVWATAQKLAADDDVDMLVILTACYFHDIVSLAKNHPQRQRSSILAAEETRRLLREEFEQFPAEKIEAVCHAIAAHSFSAQIAPLTTEAKIVQDADRLEALGAIGLARVFAVSGALGVALFDGEDPFAQHRPLDDKRYALDHFQTKLLKLPQTMQTARGKQLAQHNAHFLVEFMAKLSAELAGENEGVDHKVIDAFSSAG” the “total protein half-life in vivo” value [1] was 4.36 ± 0.052 h, the “total protein half-life in vivo” value [2] was 3.48 ± 0.37 h and the “total protein half-life in vivo” value [3] was 2.72 h. For the same sequence, the “total protein half-life in vivo” value [5] was 2.92 ± 0.03 h, the “total protein half-life in vivo” value [6] was 2.09 ± 0.078 h and the “total protein half-life in vivo” value [9] was 2.29 h. The “total protein half-life in vivo” value [12] was 3.19 h, the “total protein half-life in vivo” value [10] was 2.83 ± 0.28 h and the “total protein half-life in vivo” value [11] was 4.67 ± 0.13 h.

With “MKQTQRHNGIIELVKQQGYVSTEELVEHFSVSPQTIRRDLNELAEQNLILRHHGGAALPSSSVNTPWHDRKATQTEEKERIARKVAEQIPNGSTLFIDIGTTPEAVAHALLNHSNLRIVTNNLNVANTLMVKEDFRIILAGGELRSRDGGIIGEATLDFISQFRLDFGILGISGIDSDGSLLEFDYHEVRTKRAIIENSRHVMLVVDHSKFGRNAMVNMGSISMVDAVYTDAPPPVSVMQVLTDHHIQLELC [P0ACL0]” the “total protein half-life in vivo” value [1] was 6.303 ± 0.03 h, the “total protein half-life in vivo” value [2] was 5.91 ± 0.36 h and the “total protein half-life in vivo” value [3] was 5.156 ± 0.034 h. For the same sequence, the “total protein half-life in vivo” value [4] was 5.78 ± 0.11 h, the “total protein half-life in vivo” value [5] was 5.52 ± 0.89 h and the “total protein half-life in vivo” value [6] was 2.84 ± 0.11 h. The “total protein half-life in vivo” value [7] was 5.9 ± 0.41 h, the “total protein half-life in vivo” value [8] was 10.73 ± 0.031 h and the “total protein half-life in vivo” value [9] was 5.84 ± 0.25 h. For the same sequence, the “total protein half-life in vivo” value [12] was 10.323 ± 0.00092 h, the “total protein half-life in vivo” value [10] was 5.28 ± 0.33 h and the “total protein half-life in vivo” value [11] was 11.3 ± 0.63 h.

With “MSKSENLYSAARELIPGGVNSPVRAFTGVGGTPLFIEKADGAYLYDVDGKAYIDYVGSWGPMVLGHNHPAIRNAVIEAAERGLSFGAPTEMEVKMAQLVTELVPTMDMVRMVNSGTEATMSAIRLARGFTGRDKIIKFEGCYHGHADCLLVKAGSGALTLGQPNSPGVPADFAKYTLTCTYNDLASVRAAFEQYPQEIACIIVEPVAGNMNCVPPLPEFLPGLRALCDEFGALLIIDEVMTGFRVALAGAQDYYGVVPDLTCLGKIIGGGMPVGAFGGRRDVMDALAPTGPVYQAGTLSGNPIAMAAGFACLNEVAQPGVHETLDELTTRLAEGLLEAAEEAGIPLVVNHVGGMFGIFFTDAESVTCYQDVMACDVERFKRFFHMMLDEGVYLAPSAFEAGFMSVAHSMEDINNTIDAARRVFAKL” the “total protein half-life in vivo” value [1] was 6.35 ± 2.3 h, the “total protein half-life in vivo” value [2] was 4.99 ± 0.35 h and the “total protein half-life in vivo” value [3] was 5 ± 0.21 h. The “total protein half-life in vivo” value [4] was 5.33 ± 0.43 h, the “total protein half-life in vivo” value [5] was 3.93 ± 0.1 h and the “total protein half-life in vivo” value [6] was 3.45 ± 0.48 h. The “total protein half-life in vivo” value [7] was 7.43 ± 0.21 h, the “total protein half-life in vivo” value [8] was 11.3 ± 1.3 h and the “total protein half-life in vivo” value [9] was 4.57 ± 0.2 h. The “total protein half-life in vivo” value [12] was 7.897 ± 0.015 h, the “total protein half-life in vivo” value [10] was 5.51 ± 0.059 h and the “total protein half-life in vivo” value [11] was 12.6 ± 0.035 h.

For “MADTKAKLTLNGDTAVELDVLKGTLGQDVIDIRTLGSKGVFTFDPGFTSTASCESKITFIDGDEGILLHRGFPIDQLATDSNYLEVCYILLNGEKPTQEQYDEFKTTVTRHTMIHEQITRLFHAFRRDSHPMAVMCGITGALAAFYHDSLDVNNPRHREIAAFRLLSKMPTMAAMCYKYSIGQPFVYPRNDLSYAGNFLNMMFSTPCEPYEVNPILERAMDRILILHADHEQNASTSTVRTAGSSGANPFACIAAGIASLWGPAHGGANEAALKMLEEISSVKHIPEFVRRAKDKNDSFRLMGFGHRVYKNYDPRATVMRETCHEVLKELGTKDDLLEVAMELENIALNDPYFIEKKLYPNVDFYSGIILKAMGIPSSMFTVIFAMARTVGWIAHWSEMHSDGMKIARPRQLYTGYEKRDFKSDIKR [P0ABH7]”, the “total protein half-life in vivo” value [1] was 4.1 ± 0.75 h, the “total protein half-life in vivo” value [2] was 3.04 ± 0.12 h and the “total protein half-life in vivo” value [3] was 2.942 ± 0.0099 h. For the same sequence, the “total protein half-life in vivo” value [4] was 3.4 ± 0.35 h, the “total protein half-life in vivo” value [5] was 3.08 ± 0.34 h and the “total protein half-life in vivo” value [6] was 3.18 ± 0.15 h. The “total protein half-life in vivo” value [7] was 5.24 ± 0.23 h, the “total protein half-life in vivo” value [8] was 9.82 ± 1.7 h and the “total protein half-life in vivo” value [9] was 2.94 ± 0.063 h. For the same sequence, the “total protein half-life in vivo” value [12] was 4.55 ± 0.57 h, the “total protein half-life in vivo” value [10] was 5.57 ± 0.27 h and the “total protein half-life in vivo” value [11] was 10.5 ± 0.35 h.
